Our source for the abundance fitness values is the Human Domainome abundance scans (Beltran et al. 2025).

± gives the uncertainty stated by the source.

The labels stand for the following.
B1: Spectrin alpha chain, erythrocytic 1, residues 979 to 1036; numbered along this chain, P02549 (parent)
chain: EQRVMALYDFQARSPREVTMKKGDVLTLLSSINKDWWKVEAADHQGIVPAVYVRRLAH

The variants in the series derive from B1. Kind of series: abundance fitness (aPCA) (normalised: wild type 0, dead -1); higher = more abundant; growth selection in yeast, the domain comes from the species named. The following applies: Homo sapiens.
Consider EQRVMALYDFQARSPREVTMKKGDVLTLLSSINKDWWKVEAADHQGIVPAVYSRRLAH [V53S], for which the abundance fitness was -0.819 ± 0.26.

For EQRVMALYDFQARSPREVTMKKGDVLTLLSSINKDWWKVEAADHQGIVPAVYARRLAH [V53A], the abundance fitness was -0.766 ± 0.25.

Consider EQRVMALYDFQARSPREVTMKKGDVLTLLSSINKDWWKVEAADHQGIVPAVYCRRLAH [V53C], for which the abundance fitness was 0.039 ± 0.11.

For EQRVMALYDFQARSPREVTMKKGDVLTLLSSINKDWWKVEAADHQGIVPAVYLRRLAH [V53L], the abundance fitness came to 0.13 ± 0.1.

EQRVMALYDFQARSPREVTMKKGDVLTLLSSINKDWWKVEAADHQGIVPAVYPRRLAH [V53P]: the abundance fitness is -0.579 ± 0.42.

For the variant EQRVMALYDFQARSPREVTMKKGDVLTLLSSINKDWWKVEAADHQGIVPAVYWRRLAH [V53W], the abundance fitness was -0.634 ± 0.43.

As for EQRVMALYDFQARSPREVTMKKGDVLTLLSSINKDWWKVEAADHQGIVPAVYTRRLAH [V53T], the abundance fitness is -0.872 ± 0.33.

For the variant EQRVMALYDFQARSPREVTMKKGDVLTLLSSINKDWWKVEAADHQGIVPAVYVSRLAH [R54S], the abundance fitness was -0.588 ± 0.29.

EQRVMALYDFQARSPREVTMKKGDVLTLLSSINKDWWKVEAADHQGIVPAVYVHRLAH [R54H]: the abundance fitness amounted to 0.83 ± 0.17.

With EQRVMALYDFQARSPREVTMKKGDVLTLLSSINKDWWKVEAADHQGIVPAVYVLRLAH [R54L], the abundance fitness was -0.963 ± 0.19.

Consider EQRVMALYDFQARSPREVTMKKGDVLTLLSSINKDWWKVEAADHQGIVPAVYVGRLAH [R54G], for which the abundance fitness is -0.491 ± 0.16.

As to EQRVMALYDFQARSPREVTMKKGDVLTLLSSINKDWWKVEAADHQGIVPAVYVDRLAH [R54D], the abundance fitness was 0.095 ± 0.32.

As to EQRVMALYDFQARSPREVTMKKGDVLTLLSSINKDWWKVEAADHQGIVPAVYVVRLAH [R54V], the abundance fitness is -0.53 ± 0.12.

Regarding EQRVMALYDFQARSPREVTMKKGDVLTLLSSINKDWWKVEAADHQGIVPAVYVPRLAH [R54P], the abundance fitness was -0.292 ± 0.49.

As to EQRVMALYDFQARSPREVTMKKGDVLTLLSSINKDWWKVEAADHQGIVPAVYVQRLAH [R54Q], the abundance fitness came out at 0.052 ± 0.26.

With EQRVMALYDFQARSPREVTMKKGDVLTLLSSINKDWWKVEAADHQGIVPAVYVWRLAH [R54W], the abundance fitness was -0.668 ± 0.34.

For the variant EQRVMALYDFQARSPREVTMKKGDVLTLLSSINKDWWKVEAADHQGIVPAVYVKRLAH [R54K], the abundance fitness came to 0.257 ± 0.17.

Consider EQRVMALYDFQARSPREVTMKKGDVLTLLSSINKDWWKVEAADHQGIVPAVYVNRLAH [R54N], for which the abundance fitness was -0.668 ± 0.13.

Turning to EQRVMALYDFQARSPREVTMKKGDVLTLLSSINKDWWKVEAADHQGIVPAVYVMRLAH [R54M], the abundance fitness is -0.518 ± 0.26.

EQRVMALYDFQARSPREVTMKKGDVLTLLSSINKDWWKVEAADHQGIVPAVYVERLAH [R54E]: the abundance fitness is -0.254 ± 0.33.

Take EQRVMALYDFQARSPREVTMKKGDVLTLLSSINKDWWKVEAADHQGIVPAVYVARLAH [R54A]: the abundance fitness is -0.351 ± 0.17.

Turning to EQRVMALYDFQARSPREVTMKKGDVLTLLSSINKDWWKVEAADHQGIVPAVRVRRLAH [Y52R], the abundance fitness was -0.53 ± 0.22.

Consider EQRVMALYDFQARSPREVTMKKGDVLTLLSSINKDWWKVEAADHQGIVPAVVVRRLAH [Y52V], for which the abundance fitness was -0.682 ± 0.19.

EQRVMALYDFQARSPREVTMKKGDVLTLLSSINKDWWKVEAADHQGIVPAVFVRRLAH [Y52F]: the abundance fitness was -0.367 ± 0.16.

On to EQRVMALYDFQARSPREVTMKKGDVLTLLSSINKDWWKVEAADHQGIVPAVGVRRLAH [Y52G], for which the abundance fitness was -0.659 ± 0.29.

As to EQRVMALYDFQARSPREVTMKKGDVLTLLSSINKDWWKVEAADHQGIVPAVSVRRLAH [Y52S], the abundance fitness is 0.155 ± 0.082.

As to EQRVMALYDFQARSPREVTMKKGDVLTLLSSINKDWWKVEAADHQGIVPAVAVRRLAH [Y52A], the abundance fitness turned out to be 0.089 ± 0.13.

For EQRVMALYDFQARSPREVTMKKGDVLTLLSSINKDWWKVEAADHQGIVPAVMVRRLAH [Y52M], the abundance fitness was -0.045 ± 0.11.

In the case of EQRVMALYDFQARSPREVTMKKGDVLTLLSSINKDWWKVEAADHQGIVPAVPVRRLAH [Y52P], the abundance fitness was -0.075 ± 0.26.

With EQRVMALYDFQARSPREVTMKKGDVLTLLSSINKDWWKVEAADHQGIVPAVEVRRLAH [Y52E], the abundance fitness is -0.165 ± 0.23.

With EQRVMALYDFQARSPREVTMKKGDVLTLLSSINKDWWKVEAADHQGIVPAVWVRRLAH [Y52W], the abundance fitness was -0.978 ± 0.41.

On to EQRVMALYDFQARSPREVTMKKGDVLTLLSSINKDWWKVEAADHQGIVPAVHVRRLAH [Y52H], for which the abundance fitness is -0.368 ± 0.45.

EQRVMALYDFQARSPREVTMKKGDVLTLLSSINKDWWKVEAADHQGIVPAVLVRRLAH [Y52L]: the abundance fitness is -0.284 ± 0.16.

Turning to EQRVMALYDFQARSPREVTMKKGDVLTLLSSINKDWWKVEAADHQGIVPAVTVRRLAH [Y52T], the abundance fitness was -0.678 ± 0.17.

As for EQRVMALYDFQARSPREVTMKKGDVLTLLSSINKDWWKVEAADHQGIVPAVKVRRLAH [Y52K], the abundance fitness was -0.528 ± 0.22.

In the case of EQRVMALYDFQARSPREVTMKKGDVLTLLSSINKDWWKVEAADHQGIVPAVYVRRAAH [L56A], the abundance fitness was -0.882 ± 0.21.

As for EQRVMALYDFQARSPREVTMKKGDVLTLLSSINKDWWKVEAADHQGIVPAVYVRRWAH [L56W], the abundance fitness was -0.982 ± 0.33.

Consider EQRVMALYDFQARSPREVTMKKGDVLTLLSSINKDWWKVEAADHQGIVPAVYVRRSAH [L56S], for which the abundance fitness is -0.006 ± 0.21.

With EQRVMALYDFQARSPREVTMKKGDVLTLLSSINKDWWKVEAADHQGIVPAVYVRRTAH [L56T], the abundance fitness is -0.448 ± 0.3.

As to EQRVMALYDFQARSPREVTMKKGDVLTLLSSINKDWWKVEAADHQGIVPAVYVRRQAH [L56Q], the abundance fitness was -0.848 ± 0.16.

EQRVMALYDFQARSPREVTMKKGDVLTLLSSINKDWWKVEAADHQGIVPAVYVRRKAH [L56K]: the abundance fitness was -0.417 ± 0.45.

With EQRVMALYDFQARSPREVTMKKGDVLTLLSSINKDWWKVEAADHQGIVPAVYVRRMAH [L56M], the abundance fitness is -0.029 ± 0.31.

In the case of EQRVMALYDFQARSPREVTMKKGDVLTLLSSINKDWWKVEAADHQGIVPAVYVRRRAH [L56R], the abundance fitness was -0.874 ± 0.2.

Regarding EQRVMALYDFQARSPREVTMKKGDVLTLLSSINKDWWKVEAADHQGIVPAVYVRRVAH [L56V], the abundance fitness is -0.207 ± 0.23.

Consider EQRVMALYDFQARSPREVTMKKGDVLTLLSSINKDWWKVEAADHQGIVPAVYVRRPAH [L56P], for which the abundance fitness is -0.45 ± 0.38.

Turning to EQRVMALYDFQARSPREVTMKKGDVLTLLSSINKDWWKVEAADHQGIVPAVYVRRCAH [L56C], the abundance fitness was -0.169 ± 0.44.

Turning to EQRVMALYDFQARSPREVTMKKGDVLTLLSSINKDWWKVEAADHQGIVPAVYVRRIAH [L56I], the abundance fitness is -0.021 ± 0.12.

For the variant EQRVMALYDFQARSPREVTMKKGDVLTLLSSINKDWWKVEAADHQGIVPAVYVRRLAR [H58R], the abundance fitness is -0.078 ± 0.39.

In the case of EQRVMALYDFQARSPREVTMKKGDVLTLLSSINKDWWKVEAADHQGIVPAVYVRRLAS [H58S], the abundance fitness was 0.088 ± 0.31.

Consider EQRVMALYDFQARSPREVTMKKGDVLTLLSSINKDWWKVEAADHQGIVPAVYVRRLAY [H58Y], for which the abundance fitness was determined as 0.141 ± 0.27.
